Laboratory results from IntAct's records for PubMed 30559189.

B1: Lipoprotein lipase (Homo sapiens), P06858 (parent)
chain: MESKALLVLTLAVWLQSLTASRGGVAAADQRRDFIDIESKFALRTPEDTAEDTCHLIPGVAESVATCHFNHSSKTFMVIHGWTVTGMYESWVPKLVAALYKREPDSNVIVVDWLSRAQEHYPVSAGYTKLVGQDVARFINWMEEEFNYPLDNVHLLGYSLGAHAAGIAGSLTNKKVNRITGLDPAGPNFEYAEAPSRLSPDDADFVDVLHTFTRGSPGRSIGIQKPVGHVDIYPNGGTFQPGCNIGEAIRVIAERGLGDVDQLVKCSHERSIHLFIDSLLNEENPSKAYRCSSKEAFEKGLCLSCRKNRCNNLGYEINKVRAKRSSKMYLKTRSQMPYKVFHYQVKIHFSGTESETHTNQAFEISLYGTVAESENIPFTLPEVSTNKTYSFLIYTEVDIGELLMLKLKWKSDSYFSWSDWWSSPGFAIQKIRVKAGETQKKVIFCSREKVSHLQKGKAPAVFVKCHDKSLNKKSG
partner: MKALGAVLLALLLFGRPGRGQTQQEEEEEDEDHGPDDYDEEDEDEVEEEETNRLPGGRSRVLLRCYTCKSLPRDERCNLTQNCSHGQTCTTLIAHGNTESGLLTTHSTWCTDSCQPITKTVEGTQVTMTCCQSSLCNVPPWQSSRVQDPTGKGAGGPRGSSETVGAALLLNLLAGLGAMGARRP
B2: Glycosylphosphatidylinositol-anchored high density lipoprotein-binding protein 1 (Homo sapiens), Q8IV16 (parent)
chain: B1 partner
partner: B1 chain

Variants of: B1
Conditions: with hdbp1_human GPIHBP1, Q8IV16

Row | Variant | effect of a mutation on the interaction
1 | MESKALLVLTLAVWLQSLTASRGGVAAADQRRDFIDIESKFALRTPEDTAEDTCHLIPGVAESVATCHFNHSSKTFMVIHGWTVTGMYESWVPKLVAALYKREPDSNVIVVDWLSRAQEHYPVSAGYTKLVGQDVARFINWMEEEFNYPLDNVHLLGYSLGAHAAGIAGSLTNKKVNRITGLDPAGPNFEYAEAPSRLSPDDADFVDVLHTFTRGSPGRSIGIQKPVGHVDIYPNGGTFQPGCNIGEAIRVIAERGLGDVDQLVKCSHERSIHLFIDSLLNEENPSKAYRCSSKEAFEKGLCLSCRKNRCNNLGYEINKVRAKRSSKMYLKTRSQMPYKVFHYQVKIHFSGTESETHTNQAFEISLYGTVAESENIPFTLPEVSTNKTYSFLIYTEVDIGELLRLKLKWKSDSYFSWSDWWSSPGFAIQKIRVKAGETQKKVIFCSREKVSHLQKGKAPAVFVKCHDKSLNKKSG [M404R] | disrupting interaction strength
2 | MESKALLVLTLAVWLQSLTASRGGVAAADQRRDFIDIESKFALRTPEDTAEDTCHLIPGVAESVATCHFNHSSKTFMVIHGWTVTGMYESWVPKLVAALYKREPDSNVIVVDWLSRAQEHYPVSAGYTKLVGQDVARFINWMEEEFNYPLDNVHLLGYSLGAHAAGIAGSLTNKKVNRITGLDPAGPNFEYAEAPSRLSPDDADFVDVLHTFTRGSPGRSIGIQKPVGHVDIYPNGGTFQPGCNIGEAIRVIAERGLGDVDQLVKCSHERSIHLFIDSLLNEENPSKAYRCSSKEAFEKGLCLSCRKNRCNNLGYEINKVRAKRSSKMYLKTRSQMPYKVFHYQVKIHFSGTESETHTNQAFEISLYGTVAESENIPFTLPEVSTNKTYSFLIYTEVDIGELLMLKLKWKSDSYFSWSDWWSSPGFAIQKIRVKAGETQKKVIFSSREKVSHLQKGKAPAVFVKCHDKSLNKKSG [C445S] | disrupting interaction strength

Variants of: B1
Conditions: with hdbp1_human GPIHBP1, Q8IV16
Remark: another data set of the same source

Row | Variant | effect of a mutation on the interaction
3 | MESKALLVLTLAVWLQSLTASRGGVAAADQRRDFIDIESKFALRTPEDTAEDTCHLIPGVAESVATCHFNHSSKTFMVIHGWTVTGMYESWVPKLVAALYKREPDSNVIVVDWLSRAQEHYPVSAGYTKLVGQDVARFINWMEEEFNYPLDNVHLLGYSLGAHAAGIAGSLTNKKVNRITGLDPAGPNFEYAEAPSRLSPDDADFVDVLHTFTRGSPGRSIGIQKPVGHVDIYPNGGTFQPGCNIGEAIRVIAERGLGDVDQLVKCSHERSIHLFIDSLLNEENPSKAYRCSSKEAFEKGLCLSCRKNRCNNLGYEINKVRAKRSSKMYLKTRSQMPYKVFHYQVKIHFSGTESETHTNQAFEISLYGTVAESENIPFTLPEVSTNKTYSFLIYTEVDIGELLMLKLKWKSDSYFSWSDWWSSPGFAIQKIRVKAGETQKKVIFYSREKVSHLQKGKAPAVFVKCHDKSLNKKSG [C445Y] | disrupting interaction strength

Variants of: B2
Conditions: with lipl_human LPL, P06858

Row | Variant | effect of a mutation on the interaction
4 | MKALGAVLLALLLFGRPGRGQTQQEEEEEDEDHGPDDYDEEDEDEVEEEETNRLPGGRSRVLLRCYTCKSLPRDERCNLTQNCSHGQTCTTLIAHGNTESGLLTTHSTSCTDSCQPITKTVEGTQVTMTCCQSSLCNVPPWQSSRVQDPTGKGAGGPRGSSETVGAALLLNLLAGLGAMGARRP [W109S] | disrupting interaction strength
